The record followed here is patent US20140154255A1 (AbbVie / Abbott, published 2014).

The target of assay [1] is T1, human VEGF-A residues 27-191 of Accession #AAV38412 (human, UniProt P15692 27-191).
T1 construct: range 27-191
In words: BIAcore SPR; * detection limit. Here is the method: (§1) The binding kinetics and affinity of the antibodies for VEGF (human VEGF-A residues 27-191 of Accession #AAV38412) was determined by using a BIAcore T200 surface plasmon resonance system (BIAcore, GE Healthcare, Piscataway, N.J.). Coupling running buffer was HBS-EP+ running buffer (10 mM HEPES, 150 mM sodium chloride, 3 mM EDTA 0.05% P-20, pH 7.4); assay running buffer was HBS-EP+ with 300 mM sodium chloride and 0.1 mg/mL BSA (Sigma A7906). Polyclonal goat anti-human Fc (Thermo Scientific prod#31125) was first immobilized to the biosensor surface in 10 mM sodium acetate, pH 4.5 using standard BIAcore amine coupling reagents (N-ethyl-N′-dimethylamino-propylcarbodiimide, EDC; N-hydroxysuccinimide, NHS; and ethanolamine HCl, pH 8.5). For binding kinetics assay a series of cycles were performed, each cycle consisted of 1) mAb capture, 2) Ag or buffer injection, 3) dissociation phase and 4) regeneration. Briefly, anti-VEGF antibodies were captured on parallel surfaces at a low flow rate of 10 μL/min. Capture levels were kept low to minimize avidity due to the dimeric nature of VEGF. No capture of the antibody was made on the reference surface to serve for primary referencing and as a negative control. […]

Assay [2] concerns the target T1, human VEGF-A residues 27-191 of …. The assay can be described thus: BIAcore SPR. On the technique in general: In SPR one partner is held on a chip, and binding of the other changes the refractive index at the surface.
Assay [3] has as its target T2, unlabeled human VEGF (ELISA coat) (human, UniProt P15692-4 27-191, limits assumed). The assay can be described thus: ELISA on coated human VEGF, 1 hr incubation, against bevacizumab (WT). The method, then:
(§2) Corresponding variants in DVD-Ig format were analyzed for binding kinetics by BIAcore only.
(§3) To detect identified variants binding to antigen, ELISA plates (Nunc-Immuno MaxiSorp plates, Nalge Nunc, Rochester, N.Y.) were coated overnight at 4° C. with unlabeled human VEGF at 1 μg/mL in 0.2 M sodium carbonate-bicarbonate buffer (pH 9.4, Pierce, Rockford, Ill.). The plates were then blocked with SuperBlock Blocking Buffer (Pierce, Rockford, Ill.) for 30 min and washed with Washing Buffer (PBS containing 0.1% Tween 20). All the washing steps were performed for three times. […] The plates were washed and 100 μL of goat anti-human kappa HRP-conjugated antibody (Southern Biotech, Birmingham, Ala.) diluted at 1:1000 in ELISA buffer was added to each well. After 30 minutes of incubation, plates were washed and bound antibodies were detected by addition of TMB 1 Component HRP Microwell substrate (BioFx #TMBW-1000-01). The reaction was terminated by addition of 100 μL/well of 650 nM Stop Reagent for TMB Microwell substrate and the absorbance was measured at 650 nm using a VERSAmax microplate reader (Molecular Devices, Sunnyvale, Calif.). Data were fitted using nonlinear regression with the software […]
Background: ELISA stands for enzyme-linked immunosorbent assay.

Assay [4] deals with T1, human VEGF-A residues 27-191 of …. In words: BIAcore SPR, KD WT/KD mutant.
The target is the same in assay [5]. In words: BIAcore SPR; kd of this row is at the detection limit. The method, then:
as §1

Assay [6] addresses T2, unlabeled human VEGF (ELISA coat). The assay can be described thus: ELISA on coated human VEGF, overnight assay, against bevacizumab (WT). The method, then: as §2, §3

T1 sequence (P15692 other isoform, or with tags, fused parts or gaps limits assumed): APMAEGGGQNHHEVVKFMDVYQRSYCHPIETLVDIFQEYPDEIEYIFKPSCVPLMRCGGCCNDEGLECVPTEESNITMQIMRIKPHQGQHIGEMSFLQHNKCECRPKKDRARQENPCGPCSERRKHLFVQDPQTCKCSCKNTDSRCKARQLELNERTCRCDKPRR
T2 sequence (P15692 other isoform, or with tags, fused parts or gaps limits assumed): as above

B1: bevacizumab variant H97Y (IgG format) (antibody, name in Kabat numbering, V domains shown)
VH: EVQLVESGGGLVQPGGSLRLSCAASGYTFTNYGMNWVRQAPGKGLEWVGWINTYTGEPTYAADFKRRFTFSLDTSKSTAYLQMNSLRAEDTAVYYCAKYPYYYGSSHWYFDVWGQGTLVTVSS
VL: DIQMTQSPSSLSASVGDRVTITCSASQDISNYLNWYQQKPGKAPKVLIYFTSSLHSGVPSRFSGSGSGTDFTLTISSLQPEDFATYYCQQYSTVPWTFGQGTKVEIKR
notes: IgG format; also called H97Y substitution
The term koff denotes the first-order rate constant of dissociation. Low readings indicate slow dissociation, high ones fast dissociation. One may read the kon as the rate constant with which the complex forms. High values mean fast association, low ones slow association. The Kd is the equilibrium constant for the complex coming apart. In turn, B1 showed a koff in assay [1] of no more than 1e-05 s⁻¹. The molecule also registered an association rate constant (kon) in assay [2] of 41200 M⁻¹ s⁻¹. Besides, the “fold over WT (EC50 wild type/EC50 mutant), 1-hour assay” value in assay [3] stood at 2.6 fold. Besides, in assay [4], the affinity improvement came to 1.8 fold. In addition, in assay [5], the Kd is no more than 0.243 nM. Further, the “fold over WT (EC50 wild type/EC50 mutant), overnight assay” value in assay [6] was 9.3 fold.
